Measured values reported in patent US20100222269A1 (Novo Nordisk, published 2010).
Starred links: 1 amine or outer side, 2 acyl side, 3 side chain; linkers in the order of their positions; H or OH if unused. Positions of bridges follow the written chain, without caps; N, C: chain ends. Non-standard residues stand in square brackets, D forms with d. Groups on a side chain read outwards from the residue. No end group written: not given here. *: point of attachment. C20 diacid = O=C(O)CCCCCCCCCCCCCCCCCCC(=O)*; C18 diacid = O=C(O)CCCCCCCCCCCCCCCCC(=O)*; γGlu = O=C(O)[C@H](CCC(=O)[*:2])N[*:1]; AEEA = NCCOCCOCC(=O)O

Each binder was assayed against Amylin 3(a) receptor (human calcitonin receptor (CTa) with RAMP-3) on BHK570 cells (human, UniProt P30988 25-474) (assay: cell-based or functional assay).
Sequence of Amylin 3(a) receptor (human calcitonin receptor (CTa) with RAMP-3) on BHK570 cells (P30988 25-474): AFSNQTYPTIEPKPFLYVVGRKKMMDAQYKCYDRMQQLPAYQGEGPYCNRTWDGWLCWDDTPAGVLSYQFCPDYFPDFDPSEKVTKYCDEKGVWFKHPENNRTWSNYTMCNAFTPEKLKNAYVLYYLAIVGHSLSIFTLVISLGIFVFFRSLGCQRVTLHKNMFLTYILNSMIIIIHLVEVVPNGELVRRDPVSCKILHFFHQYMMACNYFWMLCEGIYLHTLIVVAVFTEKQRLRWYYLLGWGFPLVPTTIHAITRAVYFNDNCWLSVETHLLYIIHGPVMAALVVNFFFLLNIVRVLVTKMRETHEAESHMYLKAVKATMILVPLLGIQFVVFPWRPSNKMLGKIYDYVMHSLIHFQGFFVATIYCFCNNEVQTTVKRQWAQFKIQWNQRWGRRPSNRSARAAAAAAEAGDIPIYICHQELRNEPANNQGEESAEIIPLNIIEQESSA

Row | Potency luciferase assay | Binder
1 | 0.1 nM | {C20 diacid-γGlu}-KKCNTATCATQRLANFLVHSSNNFGPILPPTNVGSNTY-NH2 (disulfide 3-8 (inferred)) [N-alpha-[(S)-4-carboxy-4-(19-carboxynonadecanoylamino)butyryl]-Lys-pramlintide (1-37)]
2 | 2 nM | EERECNTATCATQRLANFLVHSSNNFGPILPPTNVGSNTY-NH2 (disulfide 5-10 (inferred); not fully specified (N-terminus))
3 | 0.07 nM | {C20 diacid}-EKRCNTATCATQRLANFLVHSSNNFGPILPPTNVGSNTY-NH2 (disulfide 4-9 (inferred)) [N-alpha-(19-carboxynonadecanoyl)-Glu-Lys-[Arg1]-pramlintide (1-37)]
4 | 0.1 nM | {C20 diacid}-ERCNTATCATQRLANFLVHSSNNFGPILPPTNVGSNTY-NH2 (disulfide 3-8 (inferred)) [N-alpha-(19-carboxynonadecanoyl)-Glu-[Arg1]-pramlintide (1-37)]
5 | 0.2 nM | {C20 diacid-γGlu}-RKCNTATCATQRLANFLVHSSNNFGPILPPTNVGSNTY-NH2 (disulfide 3-8 (inferred)) [N-alpha-[(S)-4-carboxy-4-(19-carboxynonadecanoylamino)butyryl]-Arg-pramlintide (1-37)]
6 | 0.2 nM | KCNTATCATQRLANFLVHSSNNFGPILPK([AEEA-AEEA-C20 diacid])TNVGSNTY-NH2 (disulfide 2-7 (inferred))
7 | 0.1 nM | KCNTATCATQRLANFLK([AEEA-AEEA-C20 diacid])HSSNNFGPILPPTNVGSNTY-NH2 (disulfide 2-7 (inferred))
8 | 0.06 nM | {C18 diacid}-EERECNTATCATQRLANFLVHSSNNFGPILPPTNVGSNTY-NH2 (disulfide 5-10 (inferred)) [N-alpha-(17-carboxyheptadecanoyl)-Glu-Glu-Arg-[Glu1]pramlintide (1-37)]
9 | 0.04 nM | KCNTATCATQRLANFLVRSSNNFGK([AEEA-AEEA-C18 diacid])ILPPTNVGSNTY-NH2 (disulfide 2-7 (inferred))
10 | 5 nM | KCNTATCATQRLANFLVHSSNNFGPILPK(C20 diacid)TNVGSNTY-NH2 (disulfide 2-7 (inferred)) [N-epsilon29-(19-carboxynonadecanoyl)-[Lys29]-pramlintide (1-37)]
11 | 0.06 nM | KCNTATCATQRLANFLVHSSNNFGK([AEEA-AEEA-C20 diacid])ILPPTNVGSNTY-NH2 (disulfide 2-7 (inferred))
12 | 0.4 nM | {C20 diacid}-EER[AEEA]ECNTATCATQRLANFLVHSSNNFGPILPPTNVGSNTY-NH2 (disulfide 6-11 (inferred))
13 | 0.1 nM | {C20 diacid-γGlu}-CNTATCATQRLANFLVHSSNNFGPILPPTNVGSNTY-NH2 (disulfide 1-6 (inferred)) [N-alpha-[(S)-4-carboxy-4-(19-carboxynonadecanoylamino)butyryl]-pramlintide (2-37)]
14 | 0.08 nM | {C20 diacid}-EKRKCNTATCATQRLANFLVHSSNNFGPILPPTNVGSNTY-NH2 (disulfide 5-10 (inferred)) [N-alpha-(19-carboxynonadecanoyl)-Glu-Lys-Arg-pramlintide (1-37)]
15 | 0.1 nM | {C20 diacid-γGlu}-RRCNTATCATQRLANFLVHSSNNFGPILPPTNVGSNTY-NH2 (disulfide 3-8 (inferred)) [N-alpha-[(S)-4-carboxy-4-(19-carboxynonadecanoylamino)butyryl]-Arg-[Arg1]-pramlintide (1-37)]
16 | 0.1 nM | KCNTATCATQRLANFLVHSSK([AEEA-AEEA-C20 diacid])NFGPILPPTNVGSNTY-NH2 (disulfide 2-7 (inferred))
17 | 0.04 nM | {C20 diacid-γGlu}-RCNTATCATQRLANFLVHSSNNFGPILPPTNVGSNTY-NH2 (disulfide 2-7 (inferred)) [N-alpha-[(S)-4-carboxy-4-(19-carboxynonadecanoylamino)butyryl]-[Arg1]-pramlintide (1-37)]
18 | 0.04 nM | CK([γGlu-4‑(16-1H-tetrazol-5-ylhexadecanoylsulfamoyl)butyryl])TATCATQRLANFLVHSSNNFGPILPPTNVGSNTY-NH2 (disulfide 1-6 (inferred))
